# Laboratory results reported in US20220406376A1 (MacroGenics, published 2022).
# Where a chain is given by its changes, count along the chain named.
# B1: hHER2 MAB-1 (1.2) (antibody, V domains shown)
# VH: QVQLVQSGAEVKKPGASVKVSCKASGYTFTNYGMNWVRQAPGQGLEWMGWINTNIGEPTYTEEFKGRVTMTRDTSISTAYMELSRLRSDDTAVYYCARDDGYGNRVSYWGQGTLVTVSS
# VL: DIQMTQSPSSLSASVGDRVTITCKASQDINTYLSWFQQKPGKAPKTLIYRANRLVEGVPSRFSGSGSGTDFTLTISSLQPEDFATYYCLQHDEFPWTFGQGTKLEIK
# B2: hHER2 MAB-1 (1.3) (antibody, V domains shown)
# VH: B1 VH
# VL: B1 VL with N30S, T31N, V55Q, E56S
# B3: TRIDENT-A3 (bispecific antibody, human IgG1, kappa, L234A L235A)
# chain 1: DIQMTQSPSSLSASVGDRVTITCRPSQDISNYLNWYQQKPDKTVKLLIYYTSRLRSGVPSRFSGSGSGTDFTFTISSLQPEDIATYFCQQGDTLPYTFGQGTKLEIKGGGSGGGGQVQLVQSGAEVKKPGASVKVSCKASGYTFTSYWINWVKQAPGQGLEWIGNIYPSDSYTNYNQKFKDKATITADKSTSTAYMELSSLRSEDTAVYYCTRDYGSAYSYSLWGQGTTVTVSSASTKGEVAACEKEVAALEKEVAALEKEVAALEKGGGDKTHTCPPCPAPEAAGGPSVFLFPPKPKDTLMISRTPEVTCVVVDVSHEDPEVKFNWYVDGVEVHNAKTKPREEQYNSTYRVVSVLTVLHQDWLNGKEYKCKVSNKALPAPIEKTISKAKGQPREPQVYTLPPSREEMTKNQVSLWCLVKGFYPSDIAVEWESNGQPENNYKTTPPVLDSDGSFFLYSKLTVDKSRWQQGNVFSCSVMHEALHNHYTQKSLSLSPGK
# chain 2: DIQMTQSPSSLSASVGDRVTITCRPSQDISNYLNWYQQKPDKTVKLLIYYTSRLRSGVPSRFSGSGSGTDFTFTISSLQPEDIATYFCQQGDTLPYTFGQGTKLEIKGGGSGGGGQVQLVQSGAEVKKPGASVKVSCKASGYTFTSYWINWVKQAPGQGLEWIGNIYPSDSYTNYNQKFKDKATITADKSTSTAYMELSSLRSEDTAVYYCTRDYGSAYSYSLWGQGTTVTVSSASTKGKVAACKEKVAALKEKVAALKEKVAALKE
# heavy: QVQLVQSGAEVKKPGASVKVSCKASGYTFTNYGMNWVRQAPGQGLEWMGWINTNIGEPTYTEEFKGRVTMTRDTSISTAYMELSRLRSDDTAVYYCARDDGYGNRVSYWGQGTLVTVSSASTKGPSVFPLAPSSKSTSGGTAALGCLVKDYFPEPVTVSWNSGALTSGVHTFPAVLQSSGLYSLSSVVTVPSSSLGTQTYICNVNHKPSNTKVDKRVEPKSCDKTHTCPPCPAPEAAGGPSVFLFPPKPKDTLMISRTPEVTCVVVDVSHEDPEVKFNWYVDGVEVHNAKTKPREEQYNSTYRVVSVLTVLHQDWLNGKEYKCKVSNKALPAPIEKTISKAKGQPREPQVYTLPPSREEMTKNQVSLSCAVKGFYPSDIAVEWESNGQPENNYKTTPPVLDSDGSFFLVSKLTVDKSRWQQGNVFSCSVMHEALHNRYTQKSLSLSPGK
# light: DIQMTQSPSSLSASVGDRVTITCKASQDISNYLSWFQQKPGKAPKTLIYRANRLQSGVPSRFSGSGSGTDFTLTISSLQPEDFATYYCLQHDEFPWTFGQGTKLEIKRTVAAPSVFIFPPSDEQLKSGTASVVCLLNNFYPREAKVQWKVDNALQSGNSQESVTEQDSKDSTYSLSSTLTLSKADYEKHKVYACEVTHQGLSSPVTKSFNRGEC
# B4: TRIDENT-A2 (bispecific antibody, human IgG1, kappa, L234A L235A)
# chain 1: B3 chain 1 with Y221M, L223T
# chain 2: B3 chain 2 with Y221M, L223T
# heavy: B3 heavy
# light: B3 light
# B5: TRIDENT-A (bispecific antibody, human IgG1, kappa, L234A L235A)
# chain 1: B3 chain 1 with A218S, Y221F, S222D, L223Y
# chain 2: B3 chain 2 with A218S, Y221F, S222D, L223Y
# heavy: B3 heavy
# light: B3 light
# B6: TRIDENT-A4 (bispecific antibody, human IgG1, kappa, L234A L235A)
# chain 1: B3 chain 1 with A218S, S222N, L223V
# chain 2: B3 chain 2 with A218S, S222N, L223V
# heavy: B3 heavy
# light: B3 light
# B7: HER2 MAB-1 (antibody, V domains shown)
# VH: EVQLQESGPELKKPGETVKISCKASGYTFTNYGMNWVKQAPGKGLKWMGWINTNIGEPTYTEEFKGRFAFSLGTSASTAFLQINNLKNEDTATYFCARDDGYGNRVSYWGQGTLVTVSA
# VL: DILMTQSPLSMYTSLGERVTITCKASQDINSYLSWFQQKPGKSPKTLIYRANRLVDGVPSRFSGSGSGQDYSLTISSLEYEDMGIYYCLQHDEFPWTFGGGTKLEIK
# notes: also called 8H11
# B8: DART-C (bispecific antibody)
# chain 1: not shown
# chain 2: DIQMTQSPSSLSASVGDRVTITCKASQDISNYLSWFQQKPGKAPKTLIYRANRLQSGVPSRFSGSGSGTDFTLTISSLQPEDFATYYCLQHDEFPWTFGQGTKLEIKGGGSGGGGQVQLVQSGAEVKKPGASVKVSCKASGYTFTSYWINWVKQAPGQGLEWIGNIYPSDSYTNYNQKFKDKATITADKSTSTAYMELSSLRSEDTAVYYCTRDYGSSYSFDYWGQGTTVTVSSGGCGGGKVAACKEKVAALKEKVAALKEKVAALKE
# B9: DART-E (bispecific antibody, human IgG1, kappa, L234A L235A)
# heavy: QVQLQQPGAELVRPGASVKLSCKASGYTFTSYWINWVKQRPGQGLEWIGNIYPSDSYTNYNQKFKDKATLTVDKSSSTAYMQLSSPTSEDSAVYYCTRDYGSSYSFDYWGQGTTLTVSSASTKGPSVFPLAPSSKSTSGGTAALGCLVKDYFPEPVTVSWNSGALTSGVHTFPAVLQSSGLYSLSSVVTVPSSSLGTQTYICNVNHKPSNTKVDKRVEPKSCDKTHTCPPCPAPEAAGGPSVFLFPPKPKDTLMISRTPEVTCVVVDVSHEDPEVKFNWYVDGVEVHNAKTKPREEQYNSTYRVVSVLTVLHQDWLNGKEYKCKVSNKALPAPIEKTISKAKGQPREPQVYTLPPSREEMTKNQVSLSCAVKGFYPSDIAVEWESNGQPENNYKTTPPVLDSDGSFFLVSKLTVDKSRWQQGNVFSCSVMHEALHNRYTQKSLSLSPGK
# light: DIQMTQTTSSLSASLGDRVTISCRPSQDISNYLNWYQQKPDGTVKLLIYYTSRLRSGVPSRFSGSGSGTDYSLTISNLEQEDIATYFCQQGDTLPYTFGGGTKLEIKRTVAAPSVFIFPPSDEQLKSGTASVVCLLNNFYPREAKVQWKVDNALQSGNSQESVTEQDSKDSTYSLSSTLTLSKADYEKHKVYACEVTHQGLSSPVTKSFNRGEC
# chain 1: QVQLQQPGAELVRPGASVKLSCKASGYTFTSYWINWVKQRPGQGLEWIGNIYPSDSYTNYNQKFKDKATLTVDKSSSTAYMQLSSPTSEDSAVYYCTRDYGSSYSFDYWGQGTTLTVSSASTKGPSVFPLAPSSKSTSGGTAALGCLVKDYFPEPVTVSWNSGALTSGVHTFPAVLQSSGLYSLSSVVTVPSSSLGTQTYICNVNHKPSNTKVDKRVEPKSCDKTHTCPPCPAPEAAGGPSVFLFPPKPKDTLMISRTPEVTCVVVDVSHEDPEVKFNWYVDGVEVHNAKTKPREEQYNSTYRVVSVLTVLHQDWLNGKEYKCKVSNKALPAPIEKTISKAKGQPREPQVYTLPPSREEMTKNQVSLWCLVKGFYPSDIAVEWESNGQPENNYKTTPPVLDSDGSFFLYSKLTVDKSRWQQGNVFSCSVMHEALHNHYTQKSLSLSPGGGGSGGGSGGGDIQMTQSPSSLSASVGDRVTITCKASQDISNYLSWFQQKPGKAPKTLIYRANRLQSGVPSRFSGSGSGTDFTLTISSLQPEDFATYYCLQHDEFPWTFGQGTKLEIKGGGSGGGGQVQLVQSGAEVKKPGASVKVSCKASGYTFTNYGMNWVRQAPGQGLEWMGWINTNIGEPTYTEEFKGRVTMTRDTSISTAYMELSRLRSDDTAVYYCARDDGYGNRVSYWGQGTLVTVSSGGCGGGEVAALEKEVAALEKEVAALEKEVAALEK
# chain 2: DIQMTQSPSSLSASVGDRVTITCKASQDISNYLSWFQQKPGKAPKTLIYRANRLQSGVPSRFSGSGSGTDFTLTISSLQPEDFATYYCLQHDEFPWTFGQGTKLEIKGGGSGGGGQVQLVQSGAEVKKPGASVKVSCKASGYTFTNYGMNWVRQAPGQGLEWMGWINTNIGEPTYTEEFKGRVTMTRDTSISTAYMELSRLRSDDTAVYYCARDDGYGNRVSYWGQGTLVTVSSGGCGGGKVAALKEKVAALKEKVAALKEKVAALKE
# Key:
# [1] = molecular target: T1, extracellular portion of human HER2 fused to a histidine-containing peptide (human, UniProt P04626 23-652); test: SPR (BIACORE); antibody captured on anti-human Fc; huHER2 6.25-50 nM; 1:1 Langmuir
# T1 construct: extracellular domain; also called huHER2; Human HER2/neu
# Source text: The humanized variants were selected to have improved binding affinity as compared to the parental murine antibody and as described may be further engineered to eliminate sequence liabilities (e.g., isomerization, deamidation sites) as described above. The binding affinity of several combinations of humanized VH and VL domains was examined by BIACORE®. Thus, an extracellular portion of human HER2 fused to a histidine-containing peptide (“huHER2”) was passed over a surface coated with immobilized antibody. Briefly, each test molecule was captured onto an F(ab)₂ goat-anti-human Fc-coated surface and then incubated in the presence of different concentrations (6.25 nM-50 nM) of huHER2. The kinetics of binding were determined via BIACORE® analysis binding (normalized 1:1 Langmuir binding model).
# [2] = molecular target: T2, HER2/neu on the surface of target cells (N87, JIMT-1, MCF-7, MDA-MB231) (UniProt P04626 23-1255, limits assumed); test: flow cytometry on JIMT-1 cells, anti-hFc APC MFI
# T2 construct: whole, on cells
# [3] = molecular target: T3, CD137 on the surface of cells (activated human T cells; engineered CHO cells) (human, UniProt Q07011 24-255); test: flow cytometry on activated pan T cells (donor D46433, CD8 PE), anti-hFc APC MFI
# T3 construct: whole, on cells; also called human CD137; cell surface expressed CD137
# [4] = molecular target: T2, HER2/neu on the surface of target cells …; test: flow cytometry on MCF-7 cells, anti-hFc APC MFI
# [5] = molecular target: T2, HER2/neu on the surface of target cells …; test: flow cytometry on N87 cells, anti-hFc APC MFI
# [6] = molecular target: T3, CD137 on the surface of cells …; test: flow cytometry on activated pan T cells gated CD8, anti-hFc APC MFI
# [7] = molecular target: T2, HER2/neu on the surface of target cells …; test: flow cytometry on N87 gastric cancer cells, anti-hFc APC MFI
# T3 sequence (Q07011 24-255, change not shown): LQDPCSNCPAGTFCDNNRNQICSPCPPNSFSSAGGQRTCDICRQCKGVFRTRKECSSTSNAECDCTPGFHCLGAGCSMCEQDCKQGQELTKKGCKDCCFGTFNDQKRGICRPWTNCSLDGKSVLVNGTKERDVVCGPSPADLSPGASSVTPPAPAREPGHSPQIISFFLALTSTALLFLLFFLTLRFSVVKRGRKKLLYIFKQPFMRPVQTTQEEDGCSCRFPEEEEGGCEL
Binder,Kd [1] [nM],koff [1] [s⁻¹],kon [1] [M⁻¹ s⁻¹],EC50 (read off the curve) [2] [nM],EC50 (read off the curve) [3] [nM],EC50 (read off the curve) [4] [nM],EC50 (read off the curve) [5] [nM],other results
B1,0.45,0.00028,620000,–,–,–,–,–
B2,0.36,0.000223,618000,–,–,–,–,–
B3,–,–,–,~0.7,~0.05,~0.2,~1,–
B4,–,–,–,~0.7,~0.04,~0.2,~1,–
B5,–,–,–,~0.9,~0.06,~0.2,~1,–
B6,–,–,–,~0.7,~0.05,~0.2,~1,–
B7,1.27,0.000654,510000,–,–,–,–,–
B8,–,–,–,–,–,–,–,EC50 (read off the curve) [6]: ~0.1 nM; EC50 (read off the curve) [7]: ~0.5 nM
B9,–,–,–,–,–,–,–,EC50 (read off the curve) [6]: ~0.1 nM; binding result [7]: binds
